Data as given in US11407819B2, “Compositions and use of a fibrinogen binding motif present in EFB and COA for therapeutics and vaccines against Staphylococcus aureus” (priority 2013, dated 2022).
“Also recorded” adds a separate entry of the source.

Experiments:
[1] = test system: Coa-F, Coa-R0, Efb-N, Efb-O, Efb-A binding to Fg; assay: Inhibition by FBE5 scFv-Fc of Coa and Efb fragment binding to immobilized human Fg; parameters: species or system Staphylococcus aureus; details: scFv-Fc 0.5, 5, 50 μg/ml; Coa-F, Coa-R0, Efb-N, Efb-O 10 nM; Efb-A 750 nM
Procedure: To assess the inhibitory activity of anti-Coa scFv-Fc antibodies, 0.5 μg/well of human Fg was immobilized at 4° C. overnight in 50 mM Carbonate Buffer, pH 9.6. Indicated amounts (50, 5, 0.5 μg/ml) of scFv-Fcs prepared in 2% BSA+1×TBS+0.05% TWEEN® 20 were pre-incubated for 1 hour with a constant concentration of Coa or Efb fragments also prepared in 2% BSA+1×TBS+0.05% TWEEN® 20 at room temperature, 250 rpm shaking. Specifically, Coa-F, Coa-R0, Efb-N and Efb-O were at a fixed concentration of 10 nM; whereas Efb-A was at 750 nM. Fg-binding activity of each protein alone was also checked (no mAb control—0 μg/ml). The Fg-coated plate was blocked with 2% BSA-TBST and washed with PBST. […] Residual bound Coa and Efb fragments were detected with HRP-conjugated (HorseRadish Peroxidase-conjugated) α-GST-tag antibody, except for Efb-N, where an HRP-conjugated α-HIS-tag was used (see FIG. 18). HRP-tagged antibodies were diluted in 2% BSA+1×TBS+0.05% TWEEN® 20 and used at 1:10000 dilution. […] HRP signal was developed using […]™ OPD tablets using manufacturer's guidelines. Binding of Coa and Efb fragments to Fg (no mAb control) was set to 100% and residual binding to Fg of Coa and Efb fragments in the presence of different concentrations of antibodies was calculated and represented.
To assess the inhibitory activity of anti-Coa scFv-Fc antibodies, 0.5 μg/well of human Fg was immobilized at 4° C. overnight in 50 mM Carbonate Buffer, pH 9.6. Indicated amounts (0, 0.5, 5, and 50 μg/ml) of scFv-Fcs were pre-incubated for 1 hour with a constant concentration of Coa or Efb fragments. Specifically, Coa-F, Coa-R0, Efb-N and Efb-O were at a fixed concentration of 10 nM; whereas Efb-A was at 750 nM. Fg-binding activity of each protein alone was also checked (no mAb control—0 μg/ml). The Fg-coated plate was blocked with 2% BSA-PBST and washed with PBST. The pre-incubated mixture of Coa/Efb and anti-Coa scFv-Fc was transferred on the Fg-coated plate. Residual bound Coa and Efb fragments were detected with HRP-conjugated (HorseRadish Peroxidase-conjugated) α-GST-tag antibody, except for Efb-N, where an HRP-conjugated α-HIS-tag was used. Binding of Coa and Efb fragments to Fg (no mAb control) was set to 100% and residual binding to Fg of Coa and Efb fragments in the presence of different concentrations of antibodies was calculated and represented.

[2] = biological target: Coa-C311-636, Coa-F311-505, Coa-R0474-505; details: all three Coa fragments (Coa-C311-636, Coa-F311-505, Coa-R0474-505)
Source text: (§1) Apparent affinity values were generated through analysis of the half maximum binding in ELISA, using […] PRISM® Version 6.01.

[3] = test system: Coa-C311-636; assay: Solid-phase binding ELISA of scFv-Fc antibodies to Coa-C311-636; parameters: species or system Staphylococcus aureus; details: 200 ng/well
Procedure: (§2) As well, binding was tested against Coa fragments, namely Coa-C311-636. Coa-F311-505. Coa-R0474-505 and Coa-R506-636. Recombinant proteins Efb-N30-105, Efb-A30-67, Efb-O68-98, Coa-C311-636, Coa-F311-505, Coa-R0474-505 and Coa-R506-636 were diluted in 50 mM sodium carbonate pH 9.6 and immobilized at the concentration of 200 ng/well for 1 hour at room temperature. Immobilized proteins were probed for recognition in a solid-phase binding assay with different quantities of LIG40 antibodies after blocking and washing. After washing, varying concentrations of LIG40 scFv-Fc antibodies were diluted in 2% BSA+1×PBS+0.05% TWEEN® 20 and incubated with the immobilized proteins for 1 hour at room temperature with shaking at 250 rpm. Bound scFv-Fcs were detected using polyclonal α-human IgG HRP-conjugated Ab diluted to 1:10000 in 2% BSA+1×PBS+0.05% TWEEN® 20. HRP-conjugated Ab was incubated for 1 hour at room temperature with shaking at 250 rpm.
as §1

[4] = test system: CoaC and CoaR; assay: Peptide (CoaRO, CoaRI) inhibition of LIG40 mAbs binding to immobilized CoaC and CoaR; parameters: species or system Staphylococcus aureus; details: mAbs 0.5 μg/ml; 200 ng/well
Procedure: To investigate if LIG40 mAbs could be inhibited by CoaRO and CoaRI peptides, CoaC and CoaR (200 ng/well) was immobilized at 4° C. overnight in 50 mM Carbonate Buffer, pH 9.6. A fixed concentration of mAbs (0.5 μg/ml) prepared in 2% BSA+1×TBS+0.05% TWEEN® 20 was added to the wells along with indicated amounts of CoaRO and CoaRI peptides prepared in 1X TBS. Incubation for 1 hour, room temperature, 250 rpm shaking followed. After washing, the levels of bound mAbs were determined using a polyclonal α-human IgG HRP-conjugated Ab diluted 1:10000 in 2% BSA+1×TBS+0.05% TWEEN® 20. […] The development was performed through […]™ OPD tablets following manufacturer's protocol. […] First, to achieve appreciable inhibition high concentration of peptides needed to be used (above 100 μM).
To investigate if LIG40 mAbs could be inhibited by CoaRO and CoaRI peptides, CoaC and CoaR (200 ng/well) was immobilized at 4° C. overnight in 50 mM Carbonate Buffer, pH 9.6. A fixed concentration of mAbs (0.5 μg/ml) was added to the wells along with, indicated amounts of CoaRO and CoaRI peptides. Incubation for 1 hour, room temperature, 250 rpm shaking followed. After washing, […] were incubated with polyclonal α-human IgG HRP-conjugated Ab. […] First, to achieve appreciable inhibition high concentration of peptides needed to be used (above 100 μM).

[5] = biological target: T1, Coa-R506-636 (Staphylococcus aureus, UniProt P07767); format: binding; details: 200 ng/well
T1 construct: the Coa-R is corresponding to the tandem-repeat region covering residue 506-636; GST (N); made in house; host or cells: E. coli BL21
Procedure: as §2, §1

[6] = test system: Coa-F311-505 and Coa-R0474-505; assay: Solid-phase binding ELISA of LIG40 antibodies to Coa-F311-505 and Coa-R0474-505; parameters: species or system Staphylococcus aureus; details: 200 ng/well
Procedure: As well, binding was tested against Coa fragments, namely Coa-C311-636. Coa-F311-505. Coa-R0474-505 and Coa-R506-636. […] Immobilized proteins were probed for recognition in a solid-phase binding assay with different quantities of LIG40 antibodies after blocking and washing. […] HRP signal was developed with […]™ OPD using manufacturers guidelines. These 2 antibodies bound only Coa fragments in a dose dependent manner. No binding to truncated recombinant Efb proteins was observed.
For both antibodies, values in the range of 10^−10-10^−11 M were obtained.

Molecule | inhibition of binding to Fg of all proteins tested [1] | apparent Kd of anti-CoaC mAbs to Coa fragments (EC50 in ELISA) [2] | binding to Coa-C311-636 [3] | inhibition of LIG40 mAb binding to CoaC and CoaR by peptides [4] | binding to Coa-R506-636 [5] | binding to Coa-F311-505 and Coa-R0474-505 [6]
FBE5-F11: VH SEQ ID NO: 81, VL SEQ ID NO: 111 (antibody, V domains shown) VH: QVQLQESGGGVVQPGRSLRLSCAASGFTFSSYGMHWVRQAPGKGLEWVAVISYDGSNKYYADSVKGRFTISRDNSKNTLYLQMNSLRAEDTAVYYCAKDLASSGFDYWGQGTLVTVSS VL: QSVLTQPPSVSAAPGQKVTISCSGSSSNIGNNYVSWYQQLPGTAPKLLIYDNNKRPSGIPDRFSGSKSGTSATLGITGLQTGDEADYYCGTWDSSLSAEVFGGGTKLTVL | dose dependent inhibition of all proteins tested; also recorded: marked inhibition against all fragments of Coa and Efb | highest affinity |  |  |  | 
LIG40-D8: VH SEQ ID NO: 100, VL SEQ ID NO: 130; selected against Coa-R506-636 (antibody, V domains shown) VH: EVQLVESGGGVVQPGRSLRLSCAASGFTFSSYGMHWVRQAPGKGLEWVAVIWYDGSNKYYADSVKGRFTISRDNSKNTLYLQMNSLRAEDTAVYYCARDYHGDGFDYWGQGTLVTVSS VL: DIQMTQSPSSLSASVGDTVTITCRASQDINNYLAWFQQKPGKAPKSLISAASSLQNGVPLRFSGSASGADFTLTISGLQPEDSGTYYCQQYDVFPITFGPGTKVDIK |  |  | bound | only impaired in its binding activity by CoaRO peptide | bound | detected to a minor extent; also recorded: minor binding
